Results from the supplement of paper PMC10266784.

B1: library; numbered along this chain (parent)
chain: MAAAAAAAAEQQSSNGPVKKSMREKAVERRSVNKEHNSNFKAGYIPIDEDRLHKTGLRGRKGNLAICVIILLFILAVINLIITLVIWAVIRIGPNGCDSMEFHESGLLRFKQVSDMGVIHPLYKSTVGGRRNENLVITGNNQPIVFQQGTTKLSVENNKTSITSDIGMQFFDPRTQNILFSTDYETHEFHLPSGVKSLNVQKASTERITSNATSDLNIKVDGRAIVRGNEGVFIMGKTIEFHMGGNMELKAENSIILNGSVMVSTTRLPSSSSGDQLGSGDWVRYKLCMCADGTLFKVQVTSQNMGCQISDNPCGNTH

Variants of: B1
Assay: SGCB cell-surface expression functional score (HA stain, bin4 vs bin1, normalised to synonymous) (log10 ratio); higher = more cell-surface SGCB (functional)
Procedure, shortened: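 HEK293 cells stably expressing alpha-, gamma- and delta-sarcoglycan received codon-saturation libraries of HA-tagged, YFP-fused human beta-sarcoglycan by lentiviral transduction at MOI <0.1, performed in duplicate. Cells positive for YFP were sorted after 72 hours and cultured for 5–7 days, then stained on ice with Alexa Fluor 647 anti-HA and fixed. Fixed cells were sorted into four 5% intensity bins and amplicon-sequenced, and the log ratio of highest-bin to lowest-bin variant frequency, as a median over codons and transductions, gives the functional score. Per section, synonymous variants were scaled to mean 0, SD 0.5.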

| Variant | SGCB cell-surface expression functional score (log10) |
| --- | --- |
| E188P | -0.15 |
| Y184L | -1.63 |
| S254W | 0.38 |
| Y285M | -2.09 |
| I309P | -0.24 |
| V68G | 0.24 |
| K152E | -0.38 |
| L257P | -0.89 |
| G43H | 0.33 |
| V155I | 0.29 |
| D292K | -0.24 |
| V27S | 0.13 |
| N134L | -0.84 |
| A212T | 0.02 |
| L191S | -1.19 |
| I92S | -2.23 |
| L52Y | 0.25 |
| N316W | -0.12 |
| A76L | 0.08 |
| T205I | -0.16 |
| E206D | 0.33 |
| I255H | -1.4 |
| C97Y | -1.89 |
| C307S | -0.41 |

| Variant | SGCB cell-surface expression functional score (log10) |
| --- | --- |
| N158D | 0.02 |
| G62Y | -0.05 |
| I166E | 0.76 |
| D48T | -0.04 |
| L107V | -0.21 |
| I74R | -1.42 |
| E156S | -0.22 |
| N177W | -0.44 |
| N258P | -1.25 |
| V136G | -0.58 |
| C67V | 0.28 |
| L52N | 0.27 |
| V298I | 0.1 |
| D292S | -0.12 |
| E206C | -0.71 |
| Y44I | 0.42 |
| N134S | 0.08 |
| V118D | -0.11 |
| G280H | 0.05 |
| I239L | 0.49 |
| S272H | -0.05 |
| E206H | 0.42 |
| P269K | 0.01 |
| G306I | -0.62 |

| Variant | SGCB cell-surface expression functional score (log10) |
| --- | --- |
| G315P | -0.04 |
| I162A | -0.52 |
| I256R | 0.05 |
| V27C | -0.05 |
| S279W | -0.2 |
| R227S | 0.71 |
| S161N | -0.84 |
| S273F | -1.31 |
| V113P | 0.22 |
| A212S | 0.29 |
| V261A | -0.02 |
| G236F | -1.96 |
| M22K | 0.08 |
| I82S | -0.18 |
| G139K | -1.52 |
| R267M | -0.73 |
| F241P | -0.89 |
| I66R | 0.43 |
| N217M | 0.27 |
| R58V | -0.04 |
| Q142V | -0.05 |
| I81Q | 0.03 |
| G106R | -0.35 |
| K61V | 0.07 |

| Variant | SGCB cell-surface expression functional score (log10) |
| --- | --- |
| G194F | -0.14 |
| L268Q | -0.01 |
| S161W | -0.98 |
| D172N | -0.02 |
| M1I | -1.06 |
| A212H | -0.76 |
| D275I | -0.42 |
| E10I | 0.41 |
| K111P | -1.47 |
| R51V | 0.39 |
| L71Y | -0.5 |
| G280R | -0.45 |
| G280D | -0.56 |
| N95G | 0.21 |
| L257H | -0.81 |
| Q148S | 0.42 |
| G244P | 0.1 |
| I234L | 0.43 |
| V263E | -0.52 |
| A2G | 0.17 |
| E133I | -0.47 |
| Q299H | -0.17 |
| K152Y | -0.59 |
| K196G | -0.43 |

| Variant | SGCB cell-surface expression functional score (log10) |
| --- | --- |
| E133V | -0.31 |
| F171S | -0.28 |
| G259K | -1.06 |
| V85W | -0.09 |
| D50M | 0.2 |
| Q299Y | -0.66 |
| E133K | -0.35 |
| I70D | -0.14 |
| S105A | -0.09 |
| E28G | -0.33 |
| I309M | -0.08 |
| N253K | 0.46 |
| P17D | 0.27 |
| T186Y | 0.08 |
| G278D | 0.31 |
| F233Q | 0.77 |
| S125P | -0.99 |
| I234R | -1.51 |
| G56H | 0.15 |
| S264Q | 0.39 |
| E133G | -0.14 |
| I119G | -0.96 |
| S193T | -0.16 |
| D165P | 0.58 |

| Variant | SGCB cell-surface expression functional score (log10) |
| --- | --- |
| K196Y | -1.19 |
| K41P | 0.21 |
| C314W | 0.19 |
| H103W | 0.06 |
| S260I | -0.71 |
| E248S | 0.4 |
| N63Q | 0.11 |
| F233S | 0.62 |
| F102C | -1.3 |
| C290E | 0.01 |
| R58N | 0.17 |
| I66L | -0.78 |
| T265V | 0.52 |
| G128M | 0.04 |
| M168V | -0.11 |
| G274H | -1.17 |
| Q201K | 0.07 |
| C314S | -0.27 |
| R51L | 0.47 |
| Q148C | 0.39 |
| A6C | -0.11 |
| Q176G | 0.46 |
| C314V | 0 |
| E133M | -0.21 |

| Variant | SGCB cell-surface expression functional score (log10) |
| --- | --- |
| V220S | 0.45 |
| G244V | 0.12 |
| T83I | 0.05 |
| E49P | 0.54 |
| V77A | -0.12 |
| G167W | -1.16 |
| S302L | -0.93 |
| S181G | -0.94 |
| N246P | 0.63 |
| K54Q | -0.58 |
| S210T | -0.61 |
| R227M | 1.08 |
| G194S | 0.34 |
| N229F | 1.19 |
| L122F | -0.12 |
| G43L | -0.21 |
| I309F | -0.22 |
| E49T | 0.27 |
| T182E | -1.6 |
| S114K | -1.22 |
| G59L | 0.09 |
| K202R | 0.09 |
| N63M | -0.11 |
